Molecular target: VISTA-Fc human recombinant protein (human), Q9H7M9
Experiment: synchrotron radiation circular dichroism (SRCD) titration; fixed concentration of VISTA-Fc (or human Ig-Fc) and increasing concentrations of galectin-9, in solution; 23°C
Details: remark: other sources report otherwise

B1: human recombinant galectin-9, O00182 1-355 (ligand)
chain: MAFSGSQAPYLSPAVPFSGTIQGGLQDGLQITVNGTVLSSSGTRFAVNFQTGFSGNDIAFHFNPRFEDGGYVVCNTRQNGSWGPEERKTHMPFQKGMPFDLCFLVQSSDFKVMVNGILFVQYFHRVPFHRVDTISVNGSVQLSYISFQNPRTVPVQPAFSTVPFSQPVCFPPRPRGRRQKPPGVWPANPAPITQTVIHTVQSAPGQMFSTPAIPPMMYPHPAYPMPFITTILGGLYPSKSILLSGTVLPSAQRFHINLCSGNHIAFHLNPRFDENAVVRNTQIDNSWGSEERSLPRKMPFVRGQSFSVWILCEAHCLKVAVDGQHLFEYYHRLRNLPTINRLEVGGDIQLTHVQT
  Kd: 18 nM
